Experimental data from patent US10273305B2, “Bispecific CXCR4-CD4 polypeptides with potent anti-HIV activity” (Ablynx N.V., priority 2015, dated 2019).

B1: 01B6: anti-CD4 Nanobody, SEQ ID NO: 17 (protein)
VHH: EVQLVESGGGLVQSGGSLRLSCAASGFTFSGYWMYWVRQAPGKGLEWVSAISPGGGSTYYPDSVKGRFTISRDNAKNTLYLQMNSLKPEDTALYYCASSLTATHTYEYDYWGQGTQVTVSS
modifications: Nanobody Sequence
B2: 15A1: anti-CXCR4 Nanobody, SEQ ID NO: 15 (protein)
VHH: EVQLVESGGGLVQAGGSLRLSCAASGRTFSRAAMGWFRQAPGKEREFVGCALSSAGSALTADSVKGRFTISRDNAKNMVYLQMNNLKPEDTAVYSCVAGGYCTRAGVYPYWGQGTQVTVSS
modifications: Nanobody Sequence
B3: 283F1: anti-CXCR4 Nanobody, SEQ ID NO: 12 (protein)
VHH: EVQLVESGGGLVQAGGSLRLSCVASVNIFGSIAMAWYRQAPGKQRNLVASISSGGRINYADSRKGRFTISRDNTKNTVHLQMNSLEPEDTAVYYCAAGRIGQRTLTFTPDYWGQGTQVTVSS
modifications: Nanobody Sequence
B4: 15G11: anti-CXCR4 Nanobody, SEQ ID NO: 14 (protein)
VHH: EVQLVESGGGLVQAGDSLRVSCAASGRTSSYAMAWFRQAPGKEREFVGTISRTNSRTKYADFVEGRFTISRDNAKSTLSLQMTSLKPEDTAVYYCAAKWTGNSYHDYTWSKVDEYNVWGQGTQVTVSS
modifications: Nanobody Sequence
B5: 281E10: anti-CXCR4 Nanobody, SEQ ID NO: 6 (protein)
VHH: EVQLVESGGGLVQAGGSLRLSCKASGGTFNNYAMGWFRRAPGKEREFVAAITRSGVRSGVSAIYGDSVKDRFTISRDNVKNTLYLQMNTLKPEDTAVYTCAASAIGSGALRRFEYDYSGQGTQVTVSS
modifications: Nanobody Sequence
B6: 281A5: anti-CXCR4 Nanobody, SEQ ID NO: 5 (protein)
VHH: EVQLVESGGGLVQAGGSLRLSCAASGRTFNNYAMGWFRRAPGKEREFVAAITRSGVRSGVSAIYGDSVKDRFTISRDNAKNTLYLQMNSLKPEDTAVYTCAASAIGSGALRRFEYDYSGQGTQVTVSS
modifications: Nanobody Sequence
B7: 281A6: anti-CXCR4 Nanobody, SEQ ID NO: 8 (protein)
VHH: EVQLVESGGGLVQTGGSLRLSCAASGGTFNNYAMGWFRRAPGKEREFVAAISRSGVRTGVSALYGDSVKDRFTISRDNAKNTLYLQMNKMKPEDTAVYTCAASAIGSGALRRFEYDSSGQGTQVTVSS
modifications: Nanobody Sequence
B8: 281D4: anti-CXCR4 Nanobody, SEQ ID NO: 7 (protein)
VHH: EVQLVESGGGLVQAGGSLRLSCAASGGTFNNYAMGWFRRAPGKEREFVAAISRSGVRTGVSALYGDSVKDRFTISRDNAKNTLYLQMNKMKPEDTAVYTCAASAIGSGALRRFEYDSSGQGTQVTVSS
modifications: Nanobody Sequence
B9: 281F12-35GS-3F11: bispecific CXCR4-CD4 polypeptide, SEQ ID NO: 106 (protein)
chain: EVQLVESGGGLVQAGDSLRLSCAASGRAFSRYAMGWFRQAPGKEREFVAAIGWGPSKTNYADSVKGRFTISRDNAKNTVYLQMNTLKPEDTAVYSCAAKFVNTDSTWSRSEMYTYWGQGTQVTVSSGGGGSGGGGSGGGGSGGGGSGGGGSGGGGSGGGGSEVQLVESGGGSVQPGGSLTLSCGTSGRTFNVMGWFRQAPGKEREFVAAVRWSSTGIYYTQYADSVKSRFTISRDNAKNTVYLEMNSLKPEDTAVYYCAADTYNSNPARWDGYDFRGQGTQVTVSS
modifications: chains of the parent or of the whole protein
B10: 283B6: anti-CXCR4 Nanobody, SEQ ID NO: 10 (protein)
VHH: EVQLVASGGGLVQAGGSLRLSCAVSGTTFSVATLGWYRQAPGQQRALVADISSGGSTNYADSVRGRFTISRDNAKNLAYLQMNSLKPEDTAVYYCNARTSGWRTRSNYWGQGTQVTVSS
modifications: Nanobody Sequence
B11: 283E2: anti-CXCR4 Nanobody, SEQ ID NO: 11 (protein)
VHH: EVQLVESGGGLVQAGGSLRLSCAVSGTTFSVATLGWYRQAPGQQRALVADISSGGSTNYADSVRGRFTISRDNAKNLAYLQMNSLKPEDTAVYYCNARTSGWRTRSNYWGQGTQVTVSS
modifications: Nanobody Sequence

Key:
[1] = biological target: interaction of CD4 with the viral gp120 protein (Homo sapiens, UniProt P01730); assay: ELISA-based competition of CD4-gp120 interaction; type: binding; conditions: 500 nM Nanobody; gp120 HIV-1 IIIB
Method: Besides its role on T-cells, CD4 also serves as primary receptor for HIV entry. Therefore purified CD4 Nanobodies were analysed for the capacity to block the interaction of CD4 with the viral gp120 protein. Monovalent His-tagged Nanobodies were purified from periplasmic extracts by affinity and desalting chromatography and used in an ELISA-based competition setup. In short, 1 μg/ml of gp120 HIV-1 IIIB (Immunodiagnostic) was captured by 20 μg/ml of sheep anti-gp120 antibody D7324 (Aalto Bio Reagents) previously coated in 96 well Maxisorp microtiter plates (Nunc) and blocked with 1% casein in PBS. In parallel, 0.5 μg/ml of biotinylated CD4 was incubated with 500 nM of the different purified Nanobodies in 100 μl 0.1% Casein/PBS. After 1 hour, the biotinylated CD4-Nanobody pre-mixes were incubated 1 hour with the captured gp120. Bound biotinylated CD4 was detected using HRP-conjugated Extravidin (Sigma E2886). A blocking mouse anti-CD4 IgG2a antibody (Diaclone, clone B-A1 cat#854.030.000) was used as positive control. Blocking activity was determined as loss of O.D. signal, as compared to wells where no Nanobody was added.

[2] = system: CXCR4-using (X4) HIV-1 clone NL4.3; assay: microbe, parasite or virus in culture; type: cell-based; conditions: Example 10
CXCR4 [3] = biological target: T1, CXCR4 (Homo sapiens, UniProt P61073); assay: [125I]-CXCL12 radio-ligand displacement on membranes of HEK293 cells transfected with CXCR4; type: binding; conditions: 75 pM [125I]-CXCL12
T1 sequence (P61073 whole entry): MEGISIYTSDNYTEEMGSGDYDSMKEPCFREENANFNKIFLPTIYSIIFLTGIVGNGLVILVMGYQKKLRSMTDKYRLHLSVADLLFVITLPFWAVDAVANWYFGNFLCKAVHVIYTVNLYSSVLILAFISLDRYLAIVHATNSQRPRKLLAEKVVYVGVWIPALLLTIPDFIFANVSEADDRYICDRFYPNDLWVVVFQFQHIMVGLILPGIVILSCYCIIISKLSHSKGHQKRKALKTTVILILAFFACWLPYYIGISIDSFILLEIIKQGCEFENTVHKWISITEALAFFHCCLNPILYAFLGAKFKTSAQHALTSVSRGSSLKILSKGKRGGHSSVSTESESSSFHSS
Method: To this end, CXCR4 Nanobodies were analysed for their binding to HEK293T-CXCR4 cells, and their ability to compete with the ligand CXCL12 (or SDF-1a) for receptor binding in a radio-ligand displacement assay. The sequences of the respective CXCR4 Nanobodies are depicted in Table 3.1A.
Non-specific binding was determined in presence of 100 nM cold SDF-1. The assay was performed three times, and average percentages of SDF-1 inhibition and Ki values were calculated (Table 3.1B).

[4] = system: HIV-1 CI#17 clinical isolate (clade B); assay: HIV-1 CI#17 infection of PBMCs, p24; type: cell-based; conditions: PBMC, average 2 donors
CXCR4 [5] = biological target: T1, CXCR4; assay: Displacement of biotinylated SDF-1 on Caki cells expressing hCXCR4, flow cytometry; type: binding; conditions: 30 nM biotinylated SDF-1
Method: In addition, CXCR4 Nanobodies were analysed for ligand competition by displacement of biotinylated SDF-1 on transient transfected Caki cells expressing hCXCR4 in flow cytometry. To this end, serial dilutions of Nanobodies were pre-incubated with 30 nM of biotinylated SDF-1 (R&D Systems Fluorikine kit) and incubated to Caki-CXCR4 cells for 1 hour at 4C, after which ligand binding was visualised using extravidin-PE. The biotin-SDF-1 competitor concentration used in this assay was below the EC50 value obtained in dose-titration, where IC50 values should reflect the Ki. Ligand displacement IC50 values were calculated, and compared to the NL4.3 (X4) neutralization potencies.

CXCR4 [6] = biological target: T1, CXCR4; assay: CXCL12-AF647 binding inhibition on SupT1 cells by flow cytometry; conditions: T-cells (SUPT-1); read-out: IC50 of blocking CXCL12AF647 binding to CXCR4

Molecule | [125I] SDF-1 displacement on CXCR4-Hek pKi +/SEM (n = 3) (CXCR4 [3]) | IC50 [4] [nM] | IC90 [4] [nM] | other results
B1 | – | – | – | blocking of in vitro interaction of CD4 with gp120 [1]: block
B2 | – | – | – | IC50 HIV1 neutralisation NL4.3 in MT-4 cells, panel of CXCR4 Nanobodies [2]: sub-nanoMolar range
B3 | 7.93 +/− 0.41 | 2 | 9.1 | –
B4 | – | – | – | ligand displacement to CXCR4 (CXCR4 [5]): hardly any ligand displacement
B5 | 9.21 +/− 0.12 | 1.3 | 8.1 | –
B6 | 8.12 +/− 0.08 | 12 | > 57 | –
B7 | 8.63 +/− 0.02 | 20 | 61 | –
B8 | 8.27 +/− 0.05 | 15 | 33 | –
B9 | – | – | – | IC50 (CXCR4 [6]): 0.97 nM
B10 | 8.78 +/− 0.24 | 2.8 | 9.9 | –
B11 | 8.29 +/− 0.11 | 3.7 | – | –
